Laboratory results: patent US20230212275

B1: recombinant CFI (Complement Technology, Inc, A138) (protein)
chain: KVTYTSQEDLVEKKCLAKKYTHLSCDKVFCQPWQRCIEGTCVCKLPYQCPKNGTAVCATNRRSFPTYCQQKSLECLHPGTKFLNNGTCTAEGKFSVSLKHGNTDSEGIVEVKLVDQDKTMFICKSSWSMREANVACLDLGFQQGADTQRRFKLSDLSINSTECLHVHCRGLETSLAECTFTKRRTMGYQDFADVVCYTQKADSPMDDFFQCVNGKYISQMKACDGINDCGDQSDELCCKACQGKGFHCKSGVCIPSQYQCNGEVDCITGEDEVGCAGFASVTQEETEILTADMDAERRRIKSLLPKLSCGVKNRMHIRRKRIVGGKRAQLGDLPWQVAIKDASGITCGGIYIGGCWILTAAHCLRASKTHRYQIWTTVVDWIHPDLKRIVIEYVDRIIFHENYNAGTYQNDIALIEMKKDGNKKDCELPRSIPACVPWSPYLFQPNDTCIVSGWGREKDNERVFSLQWGEVKLISNCSKFYGNRFYEKEMECAGTYDGSIDACKGDSGGPLVCMDANNVTYVWGVVSWGENCGKPEFPGVYTKVANYFDWISYHVGRPFISQYNV

Tests used:
[1] = biological target: C3b (Complement Technology, Inc, A113) (UniProt P01024)
[2] = biological target: C3b (Complement Technology, Inc, A113), P01024
C3b (Complement Technology, Inc, A113), P01024, sequence (P01024 whole entry, looked up): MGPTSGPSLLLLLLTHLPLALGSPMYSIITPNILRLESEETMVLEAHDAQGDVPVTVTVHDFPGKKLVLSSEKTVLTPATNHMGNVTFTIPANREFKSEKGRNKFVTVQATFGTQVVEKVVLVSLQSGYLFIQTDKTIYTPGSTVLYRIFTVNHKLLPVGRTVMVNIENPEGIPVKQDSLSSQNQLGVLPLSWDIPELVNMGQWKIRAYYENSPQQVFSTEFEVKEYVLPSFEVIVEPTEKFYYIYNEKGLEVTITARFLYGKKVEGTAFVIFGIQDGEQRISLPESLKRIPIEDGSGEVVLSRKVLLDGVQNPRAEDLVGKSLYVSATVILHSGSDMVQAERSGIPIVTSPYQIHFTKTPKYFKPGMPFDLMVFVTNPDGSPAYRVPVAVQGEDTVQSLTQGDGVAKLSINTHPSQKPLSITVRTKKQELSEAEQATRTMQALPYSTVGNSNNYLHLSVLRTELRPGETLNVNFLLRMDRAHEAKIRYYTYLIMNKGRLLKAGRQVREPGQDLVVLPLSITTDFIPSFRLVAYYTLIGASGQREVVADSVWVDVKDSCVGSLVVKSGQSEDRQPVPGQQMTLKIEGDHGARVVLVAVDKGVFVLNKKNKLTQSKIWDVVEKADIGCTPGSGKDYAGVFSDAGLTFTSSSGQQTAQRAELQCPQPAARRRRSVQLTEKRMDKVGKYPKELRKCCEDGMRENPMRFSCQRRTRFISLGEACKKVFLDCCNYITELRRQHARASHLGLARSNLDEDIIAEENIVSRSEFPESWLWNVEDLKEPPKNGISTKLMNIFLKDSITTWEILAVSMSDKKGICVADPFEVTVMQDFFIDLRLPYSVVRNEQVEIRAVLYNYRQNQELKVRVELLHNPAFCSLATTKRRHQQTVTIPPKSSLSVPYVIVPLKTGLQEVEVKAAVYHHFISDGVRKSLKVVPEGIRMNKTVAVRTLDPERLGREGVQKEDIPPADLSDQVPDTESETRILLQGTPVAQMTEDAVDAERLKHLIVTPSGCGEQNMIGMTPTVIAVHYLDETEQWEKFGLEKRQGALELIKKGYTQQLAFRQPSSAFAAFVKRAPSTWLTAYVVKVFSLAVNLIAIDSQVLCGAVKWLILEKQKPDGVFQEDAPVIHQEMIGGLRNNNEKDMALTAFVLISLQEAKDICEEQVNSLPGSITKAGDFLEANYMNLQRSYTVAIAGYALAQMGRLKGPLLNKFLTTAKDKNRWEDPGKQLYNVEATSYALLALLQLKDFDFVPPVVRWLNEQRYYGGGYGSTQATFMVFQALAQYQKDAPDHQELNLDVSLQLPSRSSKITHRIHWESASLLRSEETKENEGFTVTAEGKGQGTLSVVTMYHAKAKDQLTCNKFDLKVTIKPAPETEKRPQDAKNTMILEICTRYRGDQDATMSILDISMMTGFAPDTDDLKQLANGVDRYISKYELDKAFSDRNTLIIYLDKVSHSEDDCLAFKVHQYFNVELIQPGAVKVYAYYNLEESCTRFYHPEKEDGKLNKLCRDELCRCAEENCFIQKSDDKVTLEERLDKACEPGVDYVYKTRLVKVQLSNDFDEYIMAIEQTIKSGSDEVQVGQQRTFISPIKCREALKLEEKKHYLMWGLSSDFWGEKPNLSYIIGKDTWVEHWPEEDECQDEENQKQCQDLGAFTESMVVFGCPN

Molecule | C3b cleavage assay, iC3b ELISA [1] | C3b cleavage assay, iC3b ELISA [2]
CFI secreted by HEK293 cells transduced with AAV2 bicistronic vector RC289 (coAflibercept-F2A-coCFI) | CFI and FHL1 expressed from all bicistronic vectors is functional and can facilitate breakdown of C3b to iC3b | 
CFI secreted by HEK293 cells transduced with AAV2 bicistronic vector RC313 (coCFI-F2A-coAflibercept) | CFI and FHL1 expressed from all bicistronic vectors is functional and can facilitate breakdown of C3b to iC3b | 
B1 |  | C3b incubated with recombinant CFI and FHL1 served as a positive control; C3b breakdown requires the presence of CFI and FHL1
